Where two headings read alike, the source gives them in different places.
T1: cynomolgus CD161 (cynomolgus)
T1 construct: UniProt A0A2K5WYI1; also called cynoCD161
T1 chain: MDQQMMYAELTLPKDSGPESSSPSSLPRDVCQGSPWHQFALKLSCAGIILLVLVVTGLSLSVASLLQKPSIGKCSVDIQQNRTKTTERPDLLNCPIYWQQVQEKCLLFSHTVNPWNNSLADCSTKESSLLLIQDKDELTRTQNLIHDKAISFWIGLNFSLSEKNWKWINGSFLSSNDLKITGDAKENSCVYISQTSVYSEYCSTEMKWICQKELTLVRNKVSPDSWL

T2: Human Clec4E (human, UniProt Q9ULY5 1-219)
T2 construct: also called hClec4E
T2 sequence: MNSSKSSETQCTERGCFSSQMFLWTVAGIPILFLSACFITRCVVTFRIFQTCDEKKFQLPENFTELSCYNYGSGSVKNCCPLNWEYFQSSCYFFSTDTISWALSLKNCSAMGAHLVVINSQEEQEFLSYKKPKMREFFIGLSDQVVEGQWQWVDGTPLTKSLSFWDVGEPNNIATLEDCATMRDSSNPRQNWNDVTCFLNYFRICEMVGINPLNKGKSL

T3: Human KLRF2 (human, UniProt D3W0D1 1-207)
T3 construct: also called hKLRF2
T3 sequence: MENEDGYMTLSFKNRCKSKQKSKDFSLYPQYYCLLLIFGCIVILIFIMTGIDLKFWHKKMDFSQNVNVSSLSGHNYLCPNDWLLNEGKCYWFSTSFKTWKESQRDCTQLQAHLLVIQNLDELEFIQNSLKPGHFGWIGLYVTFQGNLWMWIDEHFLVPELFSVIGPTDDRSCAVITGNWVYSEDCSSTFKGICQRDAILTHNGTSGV

T4: Human Clec10A (human, UniProt Q8IUN9 1-316)
T4 construct: also called hClec10A
T4 sequence: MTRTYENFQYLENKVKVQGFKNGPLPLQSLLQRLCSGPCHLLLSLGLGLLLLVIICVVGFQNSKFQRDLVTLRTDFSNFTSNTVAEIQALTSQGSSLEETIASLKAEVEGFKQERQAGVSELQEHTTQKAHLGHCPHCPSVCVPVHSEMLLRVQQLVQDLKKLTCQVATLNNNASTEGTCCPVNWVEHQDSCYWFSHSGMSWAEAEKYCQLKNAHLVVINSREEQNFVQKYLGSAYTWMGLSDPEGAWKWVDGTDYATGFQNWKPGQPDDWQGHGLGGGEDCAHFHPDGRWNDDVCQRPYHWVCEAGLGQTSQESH

T5: Human KLRG1 (human, UniProt Q96E93 1-195)
T5 construct: also called hKLRG1
T5 sequence: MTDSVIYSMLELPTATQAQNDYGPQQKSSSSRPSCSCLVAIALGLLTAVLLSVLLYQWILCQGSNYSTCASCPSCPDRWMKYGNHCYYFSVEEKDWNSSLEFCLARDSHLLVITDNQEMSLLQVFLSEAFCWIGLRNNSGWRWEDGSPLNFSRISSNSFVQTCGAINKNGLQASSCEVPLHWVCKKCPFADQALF

T6: Human Clec5A (human, UniProt Q9NY25 1-188)
T6 construct: also called hClec5A
T6 sequence: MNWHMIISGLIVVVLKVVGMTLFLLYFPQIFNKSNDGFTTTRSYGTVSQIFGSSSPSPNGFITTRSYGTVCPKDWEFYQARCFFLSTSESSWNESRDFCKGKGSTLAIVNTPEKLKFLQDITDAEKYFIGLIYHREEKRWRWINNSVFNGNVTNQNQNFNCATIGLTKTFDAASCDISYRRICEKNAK

T7: Human CD94 (human, UniProt Q13241 1-179)
T7 construct: also called hCD94
T7 sequence: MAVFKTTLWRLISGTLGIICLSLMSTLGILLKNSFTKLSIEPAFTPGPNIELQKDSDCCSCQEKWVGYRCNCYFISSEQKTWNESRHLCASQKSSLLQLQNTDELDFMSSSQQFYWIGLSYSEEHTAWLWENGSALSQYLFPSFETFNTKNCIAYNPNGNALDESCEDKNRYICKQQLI

B1: KW1.2.1 (antibody, V domains shown)
VH: EVQLVESGGGLVQPGGSLRLSCAASGSTFSSYAMSWVRQAPGKGLEWVSTISGSGGSTYYADSVKGRFTISRDNSRNTLYLQMNSLRAEDTAVYYCARGGLIPSGFDYWGQGTLVTVSS
VL: DIQMTQSPSSPSASVGDRVTITCRASQSISSYLNWYQQKPGKAPKLLIYAASSLLSGVPSRFSGSGSGTDFTLTISSLQPEDFATYYCQQTYSTPLTFGQGTKVEIK
B2: KW1.3.12 (antibody, human IgG1, V domains shown)
VH: EVQLVESGGGLVQPGGSLRLSCAASGFTFSSYAMSWVRQAPGKGLEWVSTISGSGGSTYYADSVKGRFTISRDNSRNTLYLQMNSLRAEDTAVYYCARGGLIPSGFDYWGQGTLVTVSS
VL: DIQMTQSPSSLSASVGDRVTITCRASQSISSYLNWYQQKPGKAPKLLIYAASSLLSGVPSRFSGSGSGTDFTLTISSLQPEDFATYYCQQTYSAPLTFGQGTKVEIK
B3: KW7.2.2 (antibody, V domains shown)
VH: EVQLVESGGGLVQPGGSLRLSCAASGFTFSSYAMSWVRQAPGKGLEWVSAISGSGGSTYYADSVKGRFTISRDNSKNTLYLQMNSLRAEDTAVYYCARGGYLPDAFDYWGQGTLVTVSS
VL: DIQMTQSPSSLSASVGDRVTITCRASQSISSYLNWYQQKPGKAPRFLIYAASSLQSGVPSRFSGSGSGTDFTLTISSLQPEDFATYYCQQTYSTPLTFGQGTKVEIK
B4: KW7.3.7 (antibody, V domains shown)
VH: EVQLVESGGGLVQPGGSLRLSCAASGFTFSSYAMSWVRQAPGKGLEWVSATSGSGGSTYYADSAKGRFTISRDNSKNTLYLQMNSLRAEDTAVYYCARGGYLPDAFDYWGRGTLVTVSS
VL: DIQMTQSPSSLSASVGDRVTITCWASQSISSYLNWYQQEPGKAPKLLIYAASSLQSGVPSRFSGSGSGTDFTLTISSLQPEDFATYYCQQTYSTPLTFGQGTKVEIK
B5: KM12.2.3 (antibody, human IgG1, V domains shown)
VH: EVQLVESGGGLVQPGGSLRLSCAASGFTFSSYAMSWIRQAPGKGLEWVSAISGSGGSIYYADSVKGRFTISRDNSKNTLYLQMNSLRAEDTAVYYCARGYSDSYFYGPYYTFDYWGQGTLVTVSS
VL: DIQMTQSPSSLSASVGDRVTITCRASQGISSYLNWYQQKPGKAPKLLIYAASSLQSGVSSRFSGSGSGTDFTLTISSLQPEDFATYYCQQSYNTPLTFGQGTKVEIK
B6: KM12.4.7 (antibody, V domains shown)
VH: EVQLVESGGGLVQPGGSLRLPCAASGFTFSSYAMSWIRQAPGKGLEWVSAISGSGGSIYYADSVKGRFTISRDNSKNTLYLQMDSLRAEDTAVYYCARGYSDSYFYGPYYTFDYWGQGTLVTVSS
VL: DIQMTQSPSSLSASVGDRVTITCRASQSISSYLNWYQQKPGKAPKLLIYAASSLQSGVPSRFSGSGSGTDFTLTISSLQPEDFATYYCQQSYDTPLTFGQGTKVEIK
B7: anti-CD161 KW17 (antibody, V domains shown)
VH: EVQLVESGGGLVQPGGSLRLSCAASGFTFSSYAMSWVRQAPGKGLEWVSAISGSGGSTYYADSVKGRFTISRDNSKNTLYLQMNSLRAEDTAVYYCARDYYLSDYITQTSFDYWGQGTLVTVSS
VL: QSVLTQPPSVSGAPGQRVTISCTGSSSNIGAGYDVHWYQQLPGTAPKLLIYGNSNRPSGVPDRFSGSKSGTSASLAITGLQAEDEADYYCQSYDSSHTVFGGGTQLTVL
notes: Human, lambda light chain; scFv-Fc or full IgG not clear; also called KW17-Fc
B8: KW17.3.4 (antibody, V domains shown)
VH: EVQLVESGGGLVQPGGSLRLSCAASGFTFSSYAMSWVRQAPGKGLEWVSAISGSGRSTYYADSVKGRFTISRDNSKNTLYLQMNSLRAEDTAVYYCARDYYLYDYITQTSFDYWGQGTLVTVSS
VL: QSVLTQPPSVSGAPGQRVTISCTGSSSNIGAGYDVHWYQQLPGTAPKLLIYGNSNRPSGVPDRFSGSQSGTSASLAITGLQAEDEADYYCQSYNSGHTVFGGGTQLTVL
B9: KW9.3.3 (antibody, V domains shown)
VH: EVQLVESGGGLVQPGGSLRLSCAASGFTFSSYAMSWVRQAPGKGLEWVSAISGSGGRTYYADSVKGRFTISRDNSKNTLYLQMNSLRAEDTAMYYCARGPGYMYLYGDSFFEYWGQGTLVTVSS
VL: DIQMAQSPSSLSASVGDRVTITCRASQGISSYLNWYQQKPGKAPKLLIYAASSLQSGVPSRFSGSGYGTDFTLTISSLQPEDFATYYCQQSYSTPLTFGQGTKVEIK

Key:
cynomolgus CD161 [1] = target: T1, cynomolgus CD161; test: flow, Jurkat, 100 nM Ab
Human Clec4E = target: T2, Human Clec4E; test: flow, Jurkat, 100 nM Ab
cynomolgus CD161 [2] = target: T1, cynomolgus CD161; test: flow, Jurkat, Ab titration
human CD161 [3] = target: T8, human CD161 (human, UniProt Q12918 1-225); test: flow, Jurkat, Ab titration
T8 construct: UniProt Q12918; also called hCD161; KLRB1

cynomolgus CD161 [4] = target: T1, cynomolgus CD161; test: flow, Jurkat, Ab titration
Protocol: (§1) To measure binding, Jurkat cells expressing hCD161 or cynoCD161 were incubated with 0.01 nM to either 0.1 μM or 0.3 μM anti-CD161 antibodies as listed in Table 12. Jurkat cells expressing cynoCD161 were prepared using the methods described in Example 7. Volumes were sufficiently large such that ligand was depleted less than 10%. Following a three-hour incubation on ice, cells were washed and stained with fluorescent anti-human secondary antibody. The cells were washed, and labeling of antibody binding was assessed by flow cytometry to determine the MFI as a function of anti-CD161 antibody concentration. Raw MFI (top panel) and MFI normalized to the maximum value in each dataset (bottom panel) are shown for binding to hCD161 (FIG. 7C) and to cynoCD161 (FIG. 7D).

human CD161 [5] = target: T8, human CD161; test: flow, Jurkat, Ab titration; remark: listed apart in the source
Protocol: as §1

human CD161 [6] = target: T8, human CD161; test: flow cytometry titration of soluble IgG on Jurkat hCD161+ cells, fluorescent secondary antibody, MFI against Ab concentration (log [M])
Protocol: as §1

cynomolgus CD161 [7] = target: T1, cynomolgus CD161; test: flow cytometry titration of soluble IgG on Jurkat cynoCD161+ cells, fluorescent secondary antibody, MFI against concentration (log [M])
Protocol: as §1

cynomolgus CD161 [8] = target: T1, cynomolgus CD161; test: flow, Jurkat
cynomolgus CD161 [9] = target: T1, cynomolgus CD161; test: flow, Jurkat, 100 nM Ab
Human KLRF2 = target: T3, Human KLRF2; test: flow, Jurkat, 100 nM Ab
Human Clec10A = target: T4, Human Clec10A; test: flow, Jurkat, 100 nM Ab
Human KLRG1 = target: T5, Human KLRG1; test: flow, Jurkat, 100 nM Ab
Human Clec5A = target: T6, Human Clec5A; test: flow, Jurkat, 100 nM Ab
Human CD94 = target: T7, Human CD94; test: flow, Jurkat, 100 nM Ab

Binder	MFI normalized to WT (cynomolgus CD161 [1])	MFI normalized to WT (Human Clec4E)	fold binding vs HP-3G10 (cynomolgus CD161 [2])	fold binding vs HP-3G10 (human CD161 [3])	Kd (cynomolgus CD161 [4])	Kd (human CD161 [5])	EC50 (read off the curve) (human CD161 [6])	binding result (cynomolgus CD161 [8])	other results
B1	103	0.99	~10 fold	~10 fold	247 pM	233 pM	~200 pM	–	–
B2	117	1.17	~10 fold	~10 fold	274 pM	249 pM	~400 pM	–	EC50 (read off the curve) (cynomolgus CD161 [7]): ~300 pM
B3	108	1.1	~10 fold	~10 fold	240 pM	207 pM	~200 pM	–	–
B4	–	0.88	–	–	–	–	–	–	–
B5	11.9	1.68	–	–	–	–	–	–	–
B6	116	1.01	~10 fold	~10 fold	225 pM	92.5 pM	~90 pM	–	EC50 (read off the curve) (cynomolgus CD161 [7]): ~200 pM
B7	–	–	–	–	–	–	–	no binding (tested: 100 nM)	MFI normalized to WT (cynomolgus CD161 [9]): 0.98; MFI normalized to WT (Human KLRF2): 1.01; MFI normalized to WT (Human Clec10A): 0.96; MFI normalized to WT (Human KLRG1): 1.05; MFI normalized to WT (Human Clec5A): 1.04; MFI normalized to WT (Human CD94): 0.95
B8	1.03	0.97	–	–	–	–	–	no binding (tested: 100 nM)	–
B9	0.89	0.85	–	–	–	–	–	no binding (tested: 100 nM)	–

Source: patent US20210122826A1 (MIT, published 2021)
